{"source": "paper PMC2810336", "about": "“Mutational Analysis of Highly Conserved Residues in the Phage PhiC31 Integrase Reveals Key Amino Acids Necessary for the DNA Recombination”", "key": {"phiC31 integrase C374A": {"target": "T1, phiC31 integrase C374A (Streptomyces phage phiC31, UniProt Q38194 1-613, C374A)", "T1 sequence": "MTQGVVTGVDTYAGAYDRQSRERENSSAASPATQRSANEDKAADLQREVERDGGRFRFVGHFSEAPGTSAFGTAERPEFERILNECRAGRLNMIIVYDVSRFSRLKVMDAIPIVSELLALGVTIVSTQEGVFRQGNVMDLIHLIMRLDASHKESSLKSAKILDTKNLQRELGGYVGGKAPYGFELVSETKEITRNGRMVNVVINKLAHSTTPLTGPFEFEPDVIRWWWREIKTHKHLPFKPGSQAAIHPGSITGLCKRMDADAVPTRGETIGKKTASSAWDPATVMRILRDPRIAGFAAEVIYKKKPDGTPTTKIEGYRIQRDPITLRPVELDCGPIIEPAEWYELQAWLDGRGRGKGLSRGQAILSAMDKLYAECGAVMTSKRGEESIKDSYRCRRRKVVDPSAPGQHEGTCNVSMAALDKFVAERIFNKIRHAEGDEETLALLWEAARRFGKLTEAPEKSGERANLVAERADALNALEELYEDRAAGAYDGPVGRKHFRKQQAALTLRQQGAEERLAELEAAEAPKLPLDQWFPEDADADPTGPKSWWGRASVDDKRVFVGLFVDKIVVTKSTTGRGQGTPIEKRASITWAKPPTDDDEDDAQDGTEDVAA", "experiment": "EMSA; 400 nM protein; 50 ng/ul Poly (competitor (so in the source)), 0.05% NP-40, 50 mM KCl, 5 mM MgCl2, 10 mM EDTA, 20 ul, 0.4 ng (16 fmol) probe; 30 min at room temperature (Methods) or 30 C; pH not stated; synapsis 2 h at 30 C", "conditions": "protein: recombinant; tags: C-terminal His; chain copies: 2; label: biotin, double-strand end-labeled; blunt"}, "phiC31 integrase V571A": {"target": "T2, phiC31 integrase V571A (Streptomyces phage phiC31, UniProt Q38194 1-613, V571A)", "T2 sequence": "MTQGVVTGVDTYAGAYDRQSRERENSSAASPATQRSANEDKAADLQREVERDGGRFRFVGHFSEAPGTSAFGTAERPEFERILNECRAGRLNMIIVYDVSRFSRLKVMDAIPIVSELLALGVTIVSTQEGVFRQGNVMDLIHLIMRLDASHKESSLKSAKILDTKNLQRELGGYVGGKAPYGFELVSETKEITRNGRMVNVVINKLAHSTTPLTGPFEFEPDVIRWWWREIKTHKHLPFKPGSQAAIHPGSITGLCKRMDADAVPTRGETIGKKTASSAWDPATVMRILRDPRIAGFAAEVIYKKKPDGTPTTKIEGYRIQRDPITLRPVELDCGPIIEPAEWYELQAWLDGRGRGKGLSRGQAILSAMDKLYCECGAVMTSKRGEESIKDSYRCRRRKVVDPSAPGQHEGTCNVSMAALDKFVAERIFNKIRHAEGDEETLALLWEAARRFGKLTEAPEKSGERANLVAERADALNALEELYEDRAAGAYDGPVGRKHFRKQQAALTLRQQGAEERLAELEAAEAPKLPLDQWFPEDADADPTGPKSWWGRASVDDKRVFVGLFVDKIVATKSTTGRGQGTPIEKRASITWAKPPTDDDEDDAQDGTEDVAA", "experiment": "EMSA; 400 nM protein; 50 ng/ul Poly (competitor (so in the source)), 0.05% NP-40, 50 mM KCl, 5 mM MgCl2, 10 mM EDTA, 20 ul, 0.4 ng (16 fmol) probe; 30 min at room temperature (Methods) or 30 C; pH not stated; synapsis 2 h at 30 C", "conditions": "protein: recombinant; tags: C-terminal His; chain copies: 2; label: biotin, double-strand end-labeled; blunt"}, "phiC31 integrase WT": {"target": "T3, phiC31 integrase WT (Streptomyces phage phiC31, UniProt Q38194 1-613)", "T3 sequence": "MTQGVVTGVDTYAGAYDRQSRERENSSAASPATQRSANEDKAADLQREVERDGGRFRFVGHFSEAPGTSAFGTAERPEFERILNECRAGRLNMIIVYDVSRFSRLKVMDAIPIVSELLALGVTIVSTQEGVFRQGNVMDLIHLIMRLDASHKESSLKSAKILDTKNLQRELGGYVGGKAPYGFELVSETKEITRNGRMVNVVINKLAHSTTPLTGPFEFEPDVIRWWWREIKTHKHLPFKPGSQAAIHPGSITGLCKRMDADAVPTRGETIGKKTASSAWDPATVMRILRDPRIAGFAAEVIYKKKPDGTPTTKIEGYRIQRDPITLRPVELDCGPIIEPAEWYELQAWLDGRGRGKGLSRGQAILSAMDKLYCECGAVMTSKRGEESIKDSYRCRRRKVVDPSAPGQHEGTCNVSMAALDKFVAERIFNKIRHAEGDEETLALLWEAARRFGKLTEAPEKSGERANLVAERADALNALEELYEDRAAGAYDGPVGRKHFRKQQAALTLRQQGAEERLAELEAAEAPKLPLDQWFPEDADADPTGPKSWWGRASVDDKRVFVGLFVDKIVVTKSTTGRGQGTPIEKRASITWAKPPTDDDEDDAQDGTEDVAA", "experiment": "EMSA; complexes I, II, III; reference; competed by excess cold attB; 50 ng/ul Poly (competitor (so in the source)), 0.05% NP-40, 50 mM KCl, 5 mM MgCl2, 10 mM EDTA, 20 ul, 0.4 ng (16 fmol) probe; 30 min at room temperature (Methods) or 30 C; pH not stated; synapsis 2 h at 30 C", "conditions": "protein: recombinant; tags: C-terminal His (pET22b); chain copies: 2; label: biotin, double-strand end-labeled; blunt"}}, "data": [{"binder": "attB 41 bp (dsDNA) DNA 1: CGGGTGCCAGGGCGTGCCCTTGGGCTCCCCGGGCGCGTACT DNA 2: AGTACGCGCCCGGGGAGCCCAAGGGCACGCCCTGGCACCCG", "values": [{"measurement": "binding signal", "setting": "phiC31 integrase C374A", "result": "0 % of WT"}, {"measurement": "binding signal", "setting": "phiC31 integrase V571A", "result": "15.6 ± 1.7 % of WT"}, {"measurement": "binding signal", "setting": "phiC31 integrase WT", "result": "100 % of WT"}]}]}
